Reference: publication PMC6803667 (Scientific Reports, 2019)
Values joined by “and” are separate entries in the source; they are usually repeats but may differ in a detail not shown here. Equal values may be shown once.

B1: Ebola Late domain peptide (peptide)
peptide: ILPTAPPEYMEA
B2: p53bp2 human peptide (peptide)
peptide: Ac-EYPPYPPPPYPSG-NH2
B3: HTLV1ter Late domain peptide (peptide)
peptide: Ac-PPPYVEPTAP-NH2
notes: source: synthetic peptide, bought: SynBioSci Corporation
B4: Marburg Late domain peptide (peptide)
peptide: MQYLNPPPYADH
B5: HTLV1 Late domain peptide (peptide)
peptide: SDPQIPPPYVEP
B6: Rabies Late domain peptide (peptide)
peptide: DLWLPPPEYVPL

What was measured:
Conditions in all cases: both partners purified
[1] = target: T1, first WW domain of human YAP2 (YAP-WW1) (human, UniProt P46937-2 165-209); assay: other fluorescence titration
T1 construct: also called hYAP-WW1; not shown: GST, N-terminal, cleaved; His tag, N-terminal, cleaved
T1 sequence (P46937 165-209): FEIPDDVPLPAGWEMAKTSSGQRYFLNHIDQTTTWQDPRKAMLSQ

[2] = target: T2, second WW domain of human YAP2 (YAP-WW2) (human, UniProt P46937-2 228-271); assay: other fluorescence titration
T2 construct: also called hYAP-WW2; not shown: GST, N-terminal, cleaved; His tag, N-terminal, cleaved
T2 sequence (P46937 228-271): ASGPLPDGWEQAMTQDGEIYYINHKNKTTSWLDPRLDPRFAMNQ

[3] = target: T3, third WW domain of human NEDD4 (hNEDD4-WW3), unlabelled (human, UniProt P46934 834-878); assay: ITC
T3 construct: not shown: GST, N-terminal, cleaved; His tag, N-terminal, cleaved
T3 sequence (P46934 834-878): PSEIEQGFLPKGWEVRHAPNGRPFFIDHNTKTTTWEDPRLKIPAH

[4] = target: T1, first WW domain of human YAP2 (YAP-WW1); assay: ITC
[5] = target: T2, second WW domain of human YAP2 (YAP-WW2); assay: ITC
[6] = target: T1, first WW domain of human YAP2 (YAP-WW1); assay: other fluorescence titration; tryptophan fluorescence of the WW domain (20 uM), excitation 298 nm, centre of spectral mass against peptide concentration, one to one model; 20 mM sodium phosphate pH 7.0, 25 °C
[7] = target: T2, second WW domain of human YAP2 (YAP-WW2); assay: as above

| Binder | Kd [1] [µM] | Kd [2] [µM] | Kd [3] [µM] | dH [3] [kcal/mol] | Kd [4] | dH [4] | Kd [5] [µM] | dH [5] [kcal/mol] | Kd [6] [µM] | Kd [7] [µM] |
| --- | --- | --- | --- | --- | --- | --- | --- | --- | --- | --- |
| B1 | 750 ± 10 | 560 ± 30 | 147 ± 4 | -12.1 ± 0.167 | – | – | – | – | – | – |
| B2 | – | – | – | – | 3 µM and 1.1 µM and 1.8 µM | -14.6 kcal/mol and -15.9 kcal/mol and -13.1 kcal/mol | 12 ± 0.6 | -13.6 ± 0.239 | – | – |
| B3 | – | – | 178 ± 3 | -17.7 ± 0.191 | – | – | – | – | – | – |
| B4 | 67 ± 4 | 17 ± 1 | 51 ± 1 | -17.5 ± 0.167 | – | – | – | – | – | – |
| B5 | – | – | 61 ± 1 | -16.3 ± 0.143 | – | – | – | – | 308 ± 4 | 260 ± 40 |
| B6 | – | – | 51 ± 1 | -15.7 ± 0.191 | 181 ± 5 µM | -15.2 ± 0.215 kcal/mol | – | – | – | – |
